# Data published in paper PMC8163975 (2021).
# Where two headings read alike, the source gives them in different places.
# T1: RRAS1•mGppNHp (human, UniProt P10301 1-218)
# T1 chain: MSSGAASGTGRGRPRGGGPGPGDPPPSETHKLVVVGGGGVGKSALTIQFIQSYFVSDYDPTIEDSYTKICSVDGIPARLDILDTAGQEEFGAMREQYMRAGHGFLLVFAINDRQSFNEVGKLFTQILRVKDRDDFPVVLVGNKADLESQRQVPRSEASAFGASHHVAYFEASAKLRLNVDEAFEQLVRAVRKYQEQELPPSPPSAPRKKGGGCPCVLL
# T2: RAP2A•mGppNHp (human, UniProt P10114 1-183)
# T2 chain: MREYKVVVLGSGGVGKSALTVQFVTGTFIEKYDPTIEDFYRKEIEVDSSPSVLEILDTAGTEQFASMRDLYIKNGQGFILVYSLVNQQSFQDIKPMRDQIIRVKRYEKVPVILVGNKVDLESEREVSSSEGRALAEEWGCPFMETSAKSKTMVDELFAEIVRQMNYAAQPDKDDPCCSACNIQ
# T3: RAP1B•mGppNHp (human, UniProt P61224 1-184)
# T3 chain: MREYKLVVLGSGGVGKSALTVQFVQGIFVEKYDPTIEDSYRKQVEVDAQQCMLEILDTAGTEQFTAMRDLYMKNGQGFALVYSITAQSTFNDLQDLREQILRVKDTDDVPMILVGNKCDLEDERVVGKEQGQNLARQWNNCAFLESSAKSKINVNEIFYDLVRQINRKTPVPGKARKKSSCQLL
# T4: RALA•mGppNHp (human, UniProt P11233 1-206)
# T4 chain: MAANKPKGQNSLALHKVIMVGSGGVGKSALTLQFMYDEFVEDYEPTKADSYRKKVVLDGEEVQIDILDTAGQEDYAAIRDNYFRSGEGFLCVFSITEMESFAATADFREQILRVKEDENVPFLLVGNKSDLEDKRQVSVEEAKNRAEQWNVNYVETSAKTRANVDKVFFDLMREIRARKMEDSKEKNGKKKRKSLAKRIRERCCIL
# B1: RASSF1 RA domain, MBP fusion (domain or fragment)
# chain: RGTSVRRRTSFYLPKDAVKHLHVLSRTRAREVIEALLRKFLVVDDPRKFALFERAERHGQVYLRKLLDDEQPLRLRLLAGPSDKALSFVLKENDS
# B2: RASSF4-to-5 variant (RASSF4 RA domain with RASSF5 hotspot residues), MBP fusion (domain or fragment)
# chain: YNHKTSVFTPADGIKTLVRVNSTMTTLQVLTLLLNKFRVEDGPSEFALYIVHESGERTKLKDCEYPLISRILHGPCEKIARIFLMEADL
# What was measured:
# Test in all cases: FP
# RRAS1•mGppNHp = molecular target: T1, RRAS1•mGppNHp
# RAP2A•mGppNHp = molecular target: T2, RAP2A•mGppNHp
# RHEB1•mGppNHp = RHEB1•mGppNHp (human, UniProt Q15382 1-184)
# Chain of RHEB1•mGppNHp (Q15382 whole entry): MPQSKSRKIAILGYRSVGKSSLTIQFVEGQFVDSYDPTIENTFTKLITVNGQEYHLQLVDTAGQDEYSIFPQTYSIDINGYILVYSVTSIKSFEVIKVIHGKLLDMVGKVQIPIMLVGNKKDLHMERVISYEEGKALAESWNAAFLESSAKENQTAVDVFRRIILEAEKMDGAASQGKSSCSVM
# RAP1B•mGppNHp = molecular target: T3, RAP1B•mGppNHp
# RALA•mGppNHp = molecular target: T4, RALA•mGppNHp
# RIT1•mGppNHp [1] = molecular target: T5, RIT1•mGppNHp (human, UniProt Q92963 1-219)
# T5 sequence (Q92963 whole entry): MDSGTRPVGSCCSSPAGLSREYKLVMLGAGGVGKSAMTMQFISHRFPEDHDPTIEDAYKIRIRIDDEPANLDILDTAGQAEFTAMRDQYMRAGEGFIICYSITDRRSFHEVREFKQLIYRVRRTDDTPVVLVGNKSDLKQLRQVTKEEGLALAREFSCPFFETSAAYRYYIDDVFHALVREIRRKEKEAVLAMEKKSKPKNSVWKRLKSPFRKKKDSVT
# HRAS•mGppNHp = HRAS•mGppNHp (human, UniProt P01112 1-189)
# RIT1•mGppNHp [2] = molecular target: T5, RIT1•mGppNHp; remark: listed apart in the source
Binder,Kd (RRAS1•mGppNHp) [µM],Kd (RAP2A•mGppNHp) [µM],Kd (RHEB1•mGppNHp) [µM],Kd (RAP1B•mGppNHp) [µM],Kd (RALA•mGppNHp) [µM],Kd (RIT1•mGppNHp [1]) [µM],Kd (HRAS•mGppNHp) [µM],Kd (RIT1•mGppNHp [2]) [µM]
B1,33,22,37,26,18,136,,
B2,,,,,,,10,170
